The supplement of paper PMC10567573

B1: SLC6A17 (parent)
chain: KAVEEELDAEDRPAWNSKLQYILA
B2: MATN2 (parent)
chain: VNVPGSFVCQCYSGYALAEDGKRC
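Note: lentivirally expressed fusions sorted by FACS into six bins by GFP to DsRed ratio, PSI derived from sequencing read proportions per bin multiplied by bin number.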

Variants of: B1
Assay: protein stability index of a GFP-peptide fusion (GPS, HEK-293T) (PSI 1-6); higher = more stable
Details: c terminus: a fixed tail appended
With KAVEEEYDAEDRPAWNSKLQYILA the protein stability index was 2.51. For KAVEEEMDAEDRPAWNSKLQYILA, the protein stability index was 2.98. For KAVEEEHDAEDRPAWNSKLQYILA, the protein stability index was 3.09. With KAVEEENDAEDRPAWNSKLQYILA the protein stability index was 3.42. For KAVEEEEDAEDRPAWNSKLQYILA, the protein stability index was 3.21. KAVEEEDDAEDRPAWNSKLQYILA showed a protein stability index of 3.48. Work on KAVEEECDAEDRPAWNSKLQYILA yielded a protein stability index of 3.5. KAVEEEFDAEDRPAWNSKLQYILA showed a protein stability index of 2.23. In the case of KAVEEEIDAEDRPAWNSKLQYILA, the protein stability index is reported as 2.08. In the case of KAVEEEPDAEDRPAWNSKLQYILA, the protein stability index is reported as 3.64. Variant KAVEEETDAEDRPAWNSKLQYILA has a protein stability index of 3.1. With KPVEEELDAEDRPAWNSKLQYILA the protein stability index was 2.68. In the case of KEVEEELDAEDRPAWNSKLQYILA, the protein stability index is reported as 1.96. In the case of KTVEEELDAEDRPAWNSKLQYILA, the protein stability index is reported as 1.83. KRVEEELDAEDRPAWNSKLQYILA showed a protein stability index of 2.28. Work on KSVEEELDAEDRPAWNSKLQYILA yielded a protein stability index of 2.81. Variant KIVEEELDAEDRPAWNSKLQYILA has a protein stability index of 2.19. For KNVEEELDAEDRPAWNSKLQYILA, the protein stability index was 2.61. Variant KLVEEELDAEDRPAWNSKLQYILA has a protein stability index of 1.55. With KMVEEELDAEDRPAWNSKLQYILA the protein stability index was 2.43. Work on KVVEEELDAEDRPAWNSKLQYILA yielded a protein stability index of 2.23. With KHVEEELDAEDRPAWNSKLQYILA the protein stability index was 2.24. For KKVEEELDAEDRPAWNSKLQYILA, the protein stability index was 2.46. In the case of KCVEEELDAEDRPAWNSKLQYILA, the protein stability index is reported as 2.21. In the case of KDVEEELDAEDRPAWNSKLQYILA, the protein stability index is reported as 2.65. KGVEEELDAEDRPAWNSKLQYILA showed a protein stability index of 2.81. For KYVEEELDAEDRPAWNSKLQYILA, the protein stability index was 2.51. For KWVEEELDAEDRPAWNSKLQYILA, the protein stability index was 1.49. Work on KFVEEELDAEDRPAWNSKLQYILA yielded a protein stability index of 1.93. KQVEEELDAEDRPAWNSKLQYILA gave a protein stability index of 3. Variant KAVEEPLDAEDRPAWNSKLQYILA has a protein stability index of 2.53. For KAVEEKLDAEDRPAWNSKLQYILA, the protein stability index was 2.7. KAVEEYLDAEDRPAWNSKLQYILA showed a protein stability index of 2.65. Variant KAVEEWLDAEDRPAWNSKLQYILA has a protein stability index of 1.16. In the case of KAVEEVLDAEDRPAWNSKLQYILA, the protein stability index is reported as 2.13. In the case of KAVEENLDAEDRPAWNSKLQYILA, the protein stability index is reported as 2.45. Work on KAVEEQLDAEDRPAWNSKLQYILA yielded a protein stability index of 2.68. KAVEEMLDAEDRPAWNSKLQYILA gave a protein stability index of 1.5. Work on KAVEESLDAEDRPAWNSKLQYILA yielded a protein stability index of 2.14. In the case of KAVEEHLDAEDRPAWNSKLQYILA, the protein stability index is reported as 2.55. In the case of KAVEELLDAEDRPAWNSKLQYILA, the protein stability index is reported as 1.7. For KAVEEILDAEDRPAWNSKLQYILA, the protein stability index was 1.47. For KAVEETLDAEDRPAWNSKLQYILA, the protein stability index was 2.24. KAVEEGLDAEDRPAWNSKLQYILA gave a protein stability index of 2.27. In the case of KAVEEFLDAEDRPAWNSKLQYILA, the protein stability index is reported as 1.73. Variant KAVEEALDAEDRPAWNSKLQYILA has a protein stability index of 1.86. KAVEEDLDAEDRPAWNSKLQYILA showed a protein stability index of 3.44. Variant KAVEERLDAEDRPAWNSKLQYILA has a protein stability index of 2.79. Variant KAVEECLDAEDRPAWNSKLQYILA has a protein stability index of 2.07. KAVVEELDAEDRPAWNSKLQYILA showed a protein stability index of 2.03. For KAVFEELDAEDRPAWNSKLQYILA, the protein stability index was 1.43. KAVHEELDAEDRPAWNSKLQYILA gave a protein stability index of 2.24. In the case of KAVMEELDAEDRPAWNSKLQYILA, the protein stability index is reported as 1.78. Variant KAVREELDAEDRPAWNSKLQYILA has a protein stability index of 2.98. Variant KAVLEELDAEDRPAWNSKLQYILA has a protein stability index of 3.26. Work on KAVQEELDAEDRPAWNSKLQYILA yielded a protein stability index of 2.51. KAVCEELDAEDRPAWNSKLQYILA showed a protein stability index of 2.31. With KAVKEELDAEDRPAWNSKLQYILA the protein stability index was 2.52. Work on KAVGEELDAEDRPAWNSKLQYILA yielded a protein stability index of 2.12. KAVDEELDAEDRPAWNSKLQYILA showed a protein stability index of 2.79. KAVSEELDAEDRPAWNSKLQYILA showed a protein stability index of 2.21. Variant KAVYEELDAEDRPAWNSKLQYILA has a protein stability index of 1.8. With KAVAEELDAEDRPAWNSKLQYILA the protein stability index was 2.79. With KAVTEELDAEDRPAWNSKLQYILA the protein stability index was 3.27. In the case of KAVPEELDAEDRPAWNSKLQYILA, the protein stability index is reported as 2.54. In the case of KAVWEELDAEDRPAWNSKLQYILA, the protein stability index is reported as 1.4. KAVNEELDAEDRPAWNSKLQYILA gave a protein stability index of 2.63. Variant KAVEFELDAEDRPAWNSKLQYILA has a protein stability index of 1.91. Variant KAVEKELDAEDRPAWNSKLQYILA has a protein stability index of 2.08. Work on KAVENELDAEDRPAWNSKLQYILA yielded a protein stability index of 1.63. For KAVEQELDAEDRPAWNSKLQYILA, the protein stability index was 1.96. KAVELELDAEDRPAWNSKLQYILA gave a protein stability index of 2.14. KAVEDELDAEDRPAWNSKLQYILA gave a protein stability index of 1.75. For KAVEMELDAEDRPAWNSKLQYILA, the protein stability index was 2.05. In the case of KAVERELDAEDRPAWNSKLQYILA, the protein stability index is reported as 2.04. For KAVETELDAEDRPAWNSKLQYILA, the protein stability index was 2.33. Variant KAVEYELDAEDRPAWNSKLQYILA has a protein stability index of 1.66. Variant KAVEPELDAEDRPAWNSKLQYILA has a protein stability index of 2.7. KAVEHELDAEDRPAWNSKLQYILA gave a protein stability index of 2.32. Variant KAVEGELDAEDRPAWNSKLQYILA has a protein stability index of 1.89. KAVEVELDAEDRPAWNSKLQYILA gave a protein stability index of 2.9. With KAVESELDAEDRPAWNSKLQYILA the protein stability index was 2.51. With KAVEIELDAEDRPAWNSKLQYILA the protein stability index was 2.19.

Variants of: B2
Assay: as above
Details: c terminus: a fixed tail appended
In the case of VEVPGSFVCQCYSGYALAEDGKRC, the protein stability index is reported as 3.38. Variant VNVPGSFVCQCYSGQALAEDGKRC has a protein stability index of 1.98. VNVPGSFVCQCYSGAALAEDGKRC showed a protein stability index of 2.56. Variant VNVPGSFDCQCYSGYALAEDGKRC has a protein stability index of 3.89. VNVPGSFVCQWYSGYALAEDGKRC showed a protein stability index of 2.05. VNVPGSFVCQCYRGYALAEDGKRC gave a protein stability index of 1.85. With VNVPGSFVCQCYSGYWLAEDGKRC the protein stability index was 1.05. Work on VNVPGSFVCQCYSGYALAEDGKRR yielded a protein stability index of 1.25. With VNVPGSFVCQCYSGYALAEDGTRC the protein stability index was 2.6. Variant VNVPGSFVCQCYSGYALAEDCKRC has a protein stability index of 4.22. For VNVPRSFVCQCYSGYALAEDGKRC, the protein stability index was 2.17.
